Experimental data reported in patent US20030082185A1.

Molecular target: HIV-1 JR-FL gp120 envelope glycoprotein (HIV-1 JR-FL)
Test: cell-based or functional assay

Substance: CD4-IgG2 (from UniProt P01730 26-204; P01730 26-204) (Fc fusion)
- K (equal to the IC50) for inhibition of HIV-1 env-mediated membrane fusion, RET assay, HeLa-EnvJR-FL and PM1 cells: 0.31 µg/mL
